Assay results reported in paper doi:10.1101/2021.05.19.444868.

Biological target: trimeric post-fusion hMPV B2 F protein (trypsinized) (human metapneumovirus (hMPV), subgroup B2 | T4 bacteriophage)
Experiment: SEC

Substance: trimeric post-fusion hMPV B2 F protein (trypsinized) (natural protein)
- stoichiometry N: 3
